These are literature values, as cited in article PMC2846645.

Read-outs that look alike come from different tables or passages of the source.

Holding throughout (test): surface plasmon resonance
The target in data set [1] is GABAA receptor beta3 subunit 400-412 (UniProt P28472).
In data set [2] the target is GABAA receptor gamma2 subunit Y365/Y367 motif (UniProt P18507).
The target in data set [3] is GABAA receptor beta3 subunit 400-412 (UniProt P28472). This is another data set of the same source.

For the substance AP2 mu2 (from UniProt Q96CW1), the values for the Kd in data set [1], in data set [2] and in data set [3] were 300 nM, 40 nM and 1900 nM, respectively.
